This series deals with the molecule itself. The series can be described thus: cross-linking; 35 µM protein in 50 mM phosphate pH 7.4, 150 mM NaCl, preincubated at 37°C for 30 min; BS2G d0/d4 at 20-fold molar excess (50- and 100-fold also tested), 1 h on ice, quenched with Tris; read by 4-20% SDS-PAGE with Coomassie stain.

B1: Human recombinant αA-G98R crystallin (natural protein, UniProt P02489 1-173, looked up)
chain: MDVTIQHPWFKRTLGPFYPSRLFDQFFGEGLFEYDLLPFLSSTISPYYRQSLFRTVLDSGISEVRSDRDKFVIFLDVKHFSPEDLTVKVQDDFVEIHRKHNERQDDHGYISREFHRRYRLPSNVDQSALSCSLSADGMLTFCGPKIQTGLDATHAERAIPVSREEKPTSAPSS
On to B1, for which the binding result is reported as “binds”.

These data come from paper PMC3673982 (PLoS ONE, 2013).
